In patent US20110165161A1, “ANTI-EPCAM ANTIBODIES THAT INDUCE APOPTOSIS OF CANCER CELLS AND METHODS USING SAME” (priority 2009, published 2011):

Columns and labels:
[1] = system: Lung cancer NCI-H520 cells; assay: Antibody cytotoxicity assay (Annexin V + PI), NCI-H520; type: cell-based; conditions: for Induction of cell death (in words): 1, 3 and 10 μg/ml, overnight; for Cytotoxic effect (Annexin V + PI staining, dead cells): 17-20 hr
Method: After a 17-20 hr incubation at 37° C., cells were stained with 0.3 μl of FITC-conjugated Annexin V (Strong Biotech Corp. Cat. No. AVK250) in 50 μl Annexin V binding buffer (Strong Biotech Corp. Cat. No. AVK250) at RT for 20 min. After wash, the cells were then stained with 0.3 μl of propidium iodide in 200 μl Annexin V binding buffer. Annexin V and Propidium Iodide were used as a joint indicator for cell death. The data were acquired with BD FACSCalibur based on an acquisition of 3,000-5,000 cells and analyzed with the Cell Quest software. The combined percentages of the Annexin V+/PI+, Annexin V+/PI− and Annexin V−/PI+populations were considered as dead cells.

[2] = system: CHO parental cells; assay: FACS binding of anti-EpCAM antibodies to CHO parental cells; parameters: species or system Chinese hamster; conditions: antibody 0.1 μg/ml; HPS at 300x dilution
Method: 1×10^5 CHO/EpCAM or CHO parental cells were seeded in each well of a v-bottomed 96-well plate and incubated with purified anti-EpCAM antibodies or mouse IgG control antibody 9E10 at concentration of 0.1 μg/ml. A 300× dilution of human cell hyper-immune serum (HPS 300×) was used as binding positive control for both cell lines here. After 1 hr incubation at 4° C., cells were washed twice with 200 μl FACS buffer (1×PBS containing 1% FBS), stained with 100 μl of 1 μg/ml goat-anti-mouse IgG-PE (Southern Biotech, Cat. No. 1032-09) in FACS buffer and then incubated at 4° C. for 30 min. Cells were washed thrice with FACS buffer and analyzed by flow cytometry (BD LSR, BD Life Sciences).

[3] = system: NCI-H358 lung cancer cells; assay: Cell death in NCI-H358 lung cancer cells (Annexin V + PI); type: cell-based, human; conditions: mAb 10 μg/ml, 17 hr; for % of Annexin V + PI staining (untreated background subtracted), Mean ± SEM: mean of 5 experiments
Method: 5×10^4 NCI-H358 cells were seeded to each well of a 96-well plate, and then 10 μg/ml of anti-EpCAM or control (9E10) mAbs diluted in the medium was added into the cells. After a 17-hr incubation at 37° C., the cells were stained with 0.3 μl of FITC-conjugated Annexin V (Strong Biotech Corp. Cat. No. AVK250) in 50 μl Annexin V binding buffer (Strong Biotech Corp. Cat. No. AVK250) at RT for 20 min. After wash, the cells were then stained with 0.3 μl of propidium iodide in 200 μl Annexin V binding buffer. Annexin V and Propidium Iodide were used as a joint indicator for measuring cell death. The data were acquired with BD FACSCalibur based on an acquisition of 3,000-5,000 cells and analyzed with the Cell Quest software. The combined percentages of the Annexin V+/PI+, Annexin V+/PI− and Annexin V−/PI+populations were considered as dead cells.

Row | Molecule | Induction of cell death (in words) [1] | Cytotoxic effect (Annexin V + PI staining, dead cells) ([1]; mAb 1.0 μg/ml) [%] | Cytotoxic effect (Annexin V + PI staining, dead cells) ([1]; mAb 3.0 μg/ml) [%] | Cytotoxic effect (Annexin V + PI staining, dead cells) ([1]; mAb 10 μg/ml) [%] | Binding (FACS, Mean fluorescence intensity (MFI)) CHO [2] | % of Annexin V + PI staining (untreated background subtracted) ([3]; Exp1) [%] | % of Annexin V + PI staining (untreated background subtracted) ([3]; Exp2) [%] | % of Annexin V + PI staining (untreated background subtracted) ([3]; Exp3) [%] | % of Annexin V + PI staining (untreated background subtracted) ([3]; Exp4) [%] | % of Annexin V + PI staining (untreated background subtracted) ([3]; Exp5) [%] | % of Annexin V + PI staining (untreated background subtracted), Mean ± SEM [3] [%]
1 | 1F10: murine anti-human EpCAM monoclonal antibody (IgG1, λ1), hybridoma m338-1F10.3; VH SEQ ID NO:11, VL SEQ ID NO:13 (antibody, listed as Mus musculus, V domains shown) VH: EVKLLESGGGLVQPGGSLKLSCAASGFDFSRYWMSWVRQAPGKGLEWIGEINPDSSTMNYTPSLKDKFIISRDNAKNTLYLQMSKVRSEDTALYYCARGAYAMDYWGQGTSVTVSS VL: QAVVTQESALTTSPGETVTLTCRSSTGAVTTSNNANWVQEKPDHLFTGLIGATNNRAPGVPARFSGSLIGDKAALTITGAQTEDEAIYFCALWYINHWVFGGGTKLTVLG | substantial cell death | 40 | 46 | 57 | 6 | 32 | 30 | 40 | 39 | 37 | 35.6 ± 2.0
2 | 1G10: murine anti-human EpCAM monoclonal antibody (IgG1, K), hybridoma m290-1G10; VH SEQ ID NO:7, VL SEQ ID NO:9 (antibody, listed as Mus musculus, V domains shown) VH: QIQLVQSGPELKKPGETVKISCKASGYTFTNYGMNWVKQAPGKGFKWMGWINTYTGEPTYADDFKGRFAFSLETSASTAYLQINNLQNEDMATYFCARWGYDFDYWGQGTTLTVSS VL: QIVLTQSPAIMSSSPGEKVTMTCSASSSISYMNWYQQKPGTSPKRWIYDTSKLASGVPARFSGSGSGTSYSLTISSMEAEDAATYYCHQRSSYPYTFGGGTKLEIKR | substantial cell death | 32 | 41 | 55 | 5 | 46 | 42 | 48 | 47 | 42 | 45.0 ± 1.3
